The record followed here is publication PMC4996995.

The data set deals with T1, (His)6-YycF, non-phosphorylated response regulator (Streptococcus pneumoniae TIGR4) (UniProt A0A0H2UQ68).
T1 sequence: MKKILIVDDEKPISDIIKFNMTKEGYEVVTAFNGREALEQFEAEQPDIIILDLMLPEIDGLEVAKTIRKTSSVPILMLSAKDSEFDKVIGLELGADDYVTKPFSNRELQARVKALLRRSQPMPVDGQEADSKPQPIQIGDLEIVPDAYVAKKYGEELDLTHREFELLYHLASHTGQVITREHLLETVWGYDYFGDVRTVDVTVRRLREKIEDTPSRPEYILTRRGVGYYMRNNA
Kind of data set: EMSA. The settings on record: EMSA: 50 mM Tris-HCl pH 7.8, 500 mM NaCl, 4 mM MgCl2, 20 uL, 0.5-1.0 nM DNA, 0°C 30 min; 5% native PAGE, TBE, 4°C. A general note: In EMSA bound probe runs differently from free probe, usually more slowly.

Regarding “CATTCGGAGAGAAGAAGACCTAAATTTACAGGAAAATAAAAAATACTTGCATCATTCTTTGAATTTTGATATAATTCTTTCTGTCAAATGTTTTGATTGTAAAAGTTTTTTGAAGAAGGAGGGATATGAAAAATGGACTACCAACGAATCAATGAATATTTAACATCTATATTTAACAATGTCCTTGTAATTGAGG (double strand) [amplicon A (PFabT promoter region)]”, the binding result was “binds”.
